From publication doi:10.1101/2020.08.07.234443 (bioRxiv, 2020)

T1: eIF4G1_(1-249) (S. cerevisiae, UniProt P39935 1-249)
T1 sequence (looked up): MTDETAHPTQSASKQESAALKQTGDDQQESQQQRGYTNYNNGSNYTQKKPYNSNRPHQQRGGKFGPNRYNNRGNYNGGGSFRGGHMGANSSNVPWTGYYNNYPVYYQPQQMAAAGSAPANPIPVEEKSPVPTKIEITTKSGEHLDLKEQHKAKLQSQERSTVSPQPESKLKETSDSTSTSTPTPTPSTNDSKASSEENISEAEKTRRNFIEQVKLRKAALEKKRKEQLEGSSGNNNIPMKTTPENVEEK


Assays:
[1] = biological target: the molecule itself; experiment: SAXS
[2] = biological target: T1, eIF4G1_(1-249); experiment: NMR intermolecular paramagnetic relaxation enhancement

Binder | stoichiometry N [1] | binding result [2]
Pab1 RRM12 (domain or fragment) not shown | 2 | –
spin-labeled eIF4G1_(1-249) Q109C (domain or fragment, S. cerevisiae, UniProt P39935 1-249, looked up, 4-(2-iodoacetamido)-TEMPO nitroxyl spin label on C109) MTDETAHPTQSASKQESAALKQTGDDQQESQQQRGYTNYNNGSNYTQKKPYNSNRPHQQRGGKFGPNRYNNRGNYNGGGSFRGGHMGANSSNVPWTGYYNNYPVYYQPCQMAAAGSAPANPIPVEEKSPVPTKIEITTKSGEHLDLKEQHKAKLQSQERSTVSPQPESKLKETSDSTSTSTPTPTPSTNDSKASSEENISEAEKTRRNFIEQVKLRKAALEKKRKEQLEGSSGNNNIPMKTTPENVEEK | – | binds
